Measurements published in patent US20230357838.

Legend:
[1] = tested on: CseDa01 (Candidatus Scybalomonas e)
[2] = tested on: T1, d38_MGYPDa829 (unidentified)
T1 sequence: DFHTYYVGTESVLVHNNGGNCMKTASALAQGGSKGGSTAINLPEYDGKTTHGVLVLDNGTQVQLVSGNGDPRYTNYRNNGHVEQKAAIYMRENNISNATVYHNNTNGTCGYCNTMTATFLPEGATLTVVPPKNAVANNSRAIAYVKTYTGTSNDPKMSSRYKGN

[3] = tested on: T2, FlDa01 (Flavobacterium sp.)
T2 sequence: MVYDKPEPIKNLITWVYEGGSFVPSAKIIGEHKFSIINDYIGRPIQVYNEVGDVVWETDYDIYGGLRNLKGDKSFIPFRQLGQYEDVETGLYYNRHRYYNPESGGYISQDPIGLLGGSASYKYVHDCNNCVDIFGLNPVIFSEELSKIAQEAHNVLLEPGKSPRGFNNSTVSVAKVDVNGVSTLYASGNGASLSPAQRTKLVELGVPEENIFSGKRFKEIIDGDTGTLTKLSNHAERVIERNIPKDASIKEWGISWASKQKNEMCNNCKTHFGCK

AcDa01 = conditions: CG 0.790, CH 0.014
MGYPDa829 = tested on: T3, MGYPDa829
T3 sequence: T1 sequence

MmgDa02 = conditions: CG 0.446, CH 0.002
MGYPDa16 (unidentified) = tested on: T4, MGYPDa16 (unidentified)
T4 sequence: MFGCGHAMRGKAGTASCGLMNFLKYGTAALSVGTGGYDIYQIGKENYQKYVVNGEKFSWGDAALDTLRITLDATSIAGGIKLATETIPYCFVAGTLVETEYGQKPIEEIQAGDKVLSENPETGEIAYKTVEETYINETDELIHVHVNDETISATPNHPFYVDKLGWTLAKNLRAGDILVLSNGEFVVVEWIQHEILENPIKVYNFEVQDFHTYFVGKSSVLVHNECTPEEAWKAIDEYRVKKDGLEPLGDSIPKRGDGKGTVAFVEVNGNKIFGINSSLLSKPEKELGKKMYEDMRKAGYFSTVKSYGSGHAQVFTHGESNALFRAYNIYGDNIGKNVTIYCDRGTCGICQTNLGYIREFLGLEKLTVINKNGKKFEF

AncDa04 = tested on: T5, AncDa04
T5 sequence: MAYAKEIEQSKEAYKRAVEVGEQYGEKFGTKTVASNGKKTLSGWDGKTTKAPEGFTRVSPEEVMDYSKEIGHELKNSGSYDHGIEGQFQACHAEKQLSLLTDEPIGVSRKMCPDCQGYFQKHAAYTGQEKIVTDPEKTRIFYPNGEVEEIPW

[4] = tested on: EcDa01 (Escherichia coli)
[5] = tested on: T6, AvDa02 (Actinomyces viscosus)
T6 sequence: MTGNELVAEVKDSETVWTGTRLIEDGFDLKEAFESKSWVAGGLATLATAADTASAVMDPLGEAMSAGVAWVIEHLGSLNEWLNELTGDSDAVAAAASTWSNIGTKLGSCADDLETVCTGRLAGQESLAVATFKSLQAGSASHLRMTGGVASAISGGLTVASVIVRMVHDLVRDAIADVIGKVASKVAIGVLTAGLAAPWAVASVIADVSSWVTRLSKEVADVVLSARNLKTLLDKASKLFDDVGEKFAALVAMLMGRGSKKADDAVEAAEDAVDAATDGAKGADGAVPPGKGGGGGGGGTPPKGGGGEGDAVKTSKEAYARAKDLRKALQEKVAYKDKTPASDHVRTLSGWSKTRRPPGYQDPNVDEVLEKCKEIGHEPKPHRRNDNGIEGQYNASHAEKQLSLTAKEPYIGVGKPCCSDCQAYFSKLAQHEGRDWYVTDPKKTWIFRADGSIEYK

[6] = tested on: NsDa01 (Neisseria subflava); conditions: 5mC 0.059, 5hmC 0.017
MGYPDa06 (unidentified) = tested on: T7, MGYPDa06 (unidentified)
T7 sequence: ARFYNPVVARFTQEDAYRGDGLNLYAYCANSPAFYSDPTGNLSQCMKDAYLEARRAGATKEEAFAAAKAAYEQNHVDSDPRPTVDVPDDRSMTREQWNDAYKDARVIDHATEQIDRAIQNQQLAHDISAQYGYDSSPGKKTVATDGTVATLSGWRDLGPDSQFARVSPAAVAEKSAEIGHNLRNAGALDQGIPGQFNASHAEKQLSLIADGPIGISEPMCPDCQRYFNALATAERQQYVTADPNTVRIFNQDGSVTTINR

[7] = tested on: T8, CrDa01 (Clostridium roseum)
T8 sequence: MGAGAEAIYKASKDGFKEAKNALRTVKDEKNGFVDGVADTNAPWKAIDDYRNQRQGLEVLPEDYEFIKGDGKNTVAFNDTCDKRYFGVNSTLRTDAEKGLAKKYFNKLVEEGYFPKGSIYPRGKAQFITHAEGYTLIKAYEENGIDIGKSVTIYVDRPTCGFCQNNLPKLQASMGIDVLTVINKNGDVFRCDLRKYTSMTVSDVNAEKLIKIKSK

chimera_10 = tested on: T9, chimera_10
T9 sequence: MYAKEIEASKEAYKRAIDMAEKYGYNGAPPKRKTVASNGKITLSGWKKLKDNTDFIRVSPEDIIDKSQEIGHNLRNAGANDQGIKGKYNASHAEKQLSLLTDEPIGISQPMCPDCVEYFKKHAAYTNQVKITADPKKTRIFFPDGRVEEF

[8] = tested on: AshDa01 (Amycolatopsis sp.); conditions: CG 0.699, CH 0.193
MGYPDa20 (unidentified) = tested on: T10, MGYPDa20 (unidentified); conditions: 5mC 0.049, 5hmC 0.021
T10 sequence: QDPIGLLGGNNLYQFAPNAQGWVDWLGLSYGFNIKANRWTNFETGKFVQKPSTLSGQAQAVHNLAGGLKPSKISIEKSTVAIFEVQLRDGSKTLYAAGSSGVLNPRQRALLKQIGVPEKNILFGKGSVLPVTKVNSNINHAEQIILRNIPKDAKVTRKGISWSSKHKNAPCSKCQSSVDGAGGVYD

[9] = tested on: T11, RaDa01 (Ruminococcus sp.)
T11 sequence: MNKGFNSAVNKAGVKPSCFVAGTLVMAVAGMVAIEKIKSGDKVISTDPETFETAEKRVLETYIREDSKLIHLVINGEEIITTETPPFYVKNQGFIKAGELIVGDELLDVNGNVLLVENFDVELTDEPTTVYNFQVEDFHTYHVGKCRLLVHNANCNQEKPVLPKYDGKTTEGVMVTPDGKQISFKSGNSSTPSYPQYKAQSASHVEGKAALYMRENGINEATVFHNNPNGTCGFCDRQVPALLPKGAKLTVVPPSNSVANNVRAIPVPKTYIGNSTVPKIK

unmodified dsDNA (E. coli C2566 genomic)
activity (fraction deaminated) [1]: 0.998 | activity (fraction deaminated) [2]: 0.993 | activity (fraction deaminated) [3]: 0.928 | activity (fraction deaminated) (AcDa01): 0.243 | activity (fraction deaminated) (MGYPDa829): 0.956 | activity (fraction deaminated) (MmgDa02): 0.133 | activity (fraction deaminated) (MGYPDa16 (unidentified)): 0.78 | activity (fraction deaminated) (MGYPDa01 (unidentified)): 0.748 | activity (fraction deaminated) (AncDa04): 0.992 | activity (fraction deaminated) [4]: 0.566 | activity (fraction deaminated) [5]: 0.998 | activity (fraction deaminated) [6]: 0.597 | activity (fraction deaminated) (MGYPDa06 (unidentified)): 0.997 | activity (fraction deaminated) [7]: 0.811 | activity (fraction deaminated) (chimera_10): 0.95 | activity (fraction deaminated) (d22_Cd4_PeDa01): 0.641 | activity (fraction deaminated) [8]: 0.342 | activity (fraction deaminated) (MGYPDa20 (unidentified)): 0.857 | activity (fraction deaminated) [9]: 0.465
